Assays:
SEC = biological target: the molecule itself; experiment: SEC
[1] = biological target: the molecule itself; experiment: negative-stain electron microscopy

B1: ClpP protease from Thermus thermophilus (tetradecameric ClpP14, 300 kDa) (enzyme)
chain: not shown
stoichiometry N (SEC): 14

B2: ClpX^ΔN unfoldase from Thermus thermophilus (lacks the first 52 residues) (domain or fragment)
chain: not shown
stoichiometry N [1]: 6

From paper PMC12683673 (RSC Chemical Biology, 2025)
